Laboratory results: patent US20250109209A1 (ABSCI, published 2025)

T1: human TL1A (human, UniProt O95150 72-251)
T1 construct: Antigen in SPR and ELISA; Also used here for places that print only 'TL1A' and for endogenous TL1A in human whole blood; also called TNFSF15
T1 sequence (looked up): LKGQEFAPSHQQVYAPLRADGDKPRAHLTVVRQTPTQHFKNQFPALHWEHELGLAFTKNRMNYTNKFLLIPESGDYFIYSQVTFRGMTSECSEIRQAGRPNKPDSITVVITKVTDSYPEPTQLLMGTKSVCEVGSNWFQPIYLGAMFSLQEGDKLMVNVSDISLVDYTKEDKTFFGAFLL

T2: Cyno TL1A (cyno, UniProt G7PRK8 72-251)
T2 sequence: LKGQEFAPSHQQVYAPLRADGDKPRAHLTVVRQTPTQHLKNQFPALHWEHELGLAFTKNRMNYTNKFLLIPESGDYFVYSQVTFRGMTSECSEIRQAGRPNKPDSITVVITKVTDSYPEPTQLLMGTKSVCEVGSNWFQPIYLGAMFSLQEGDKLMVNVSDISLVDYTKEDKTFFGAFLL


What was measured:
[1] = target: T1, human TL1A; test: SPR, Fab format
[2] = target: T1, human TL1A; test: SPR, Fab lysate, average
[3] = target: T2, Cyno TL1A; test: SPR, Fab format, average
[4] = target: T1, human TL1A; test: SPR, Fab format, average

Binder	binding result [1]	Kd [2]	Kd [3]	Kd [4]
Antibody 51 (Fab format) (Fab, V domains shown, Backup lead, Fab format) VH: QVQLQESGPGLVRPSQTLSLTCTVSGFDIQDTYMHWVRQRPGRGLEWMGRIEPAGGHTKYNPSLKSRVTITRDTSKNQVSLRLSSVTAADTAVYYCVRSGGLPDAWGQGSLVTVSS VL: DIQMTQSPSSLSASVGDRVTITCRASQGVEYMYWYQQKPGKAPKLLIYGASNLASGVPSRFSGSGSGTDFTFTISSLQPEDIATYYCQQWEGNPRTFGQGTKVEIK	binds			
Antibody 53 (Fab format) (Fab, V domains shown, Backup lead, Fab format) VH: QVQLQESGPGLVRPSQTLSLTCTVSGFDIQDTYMHWVRQRPGRGLEWMGRIEPASGHTKYNPSLKSRVTITRDTSKNQVSLRLSSVTAADTAVYYCARSGGMMDRWGQGSLVTVSS VL: DIQMTQSPSSLSASVGDRVTITCRASQGVRYMYWYQQKPGKAPKLLIYGASNLASGVPSRFSGSGSGTDFTFTISSLQPEDIATYYCQQWEGNPRTFGQGTKVEIK	binds			
Antibody 42 (Fab format) (Fab, V domains shown, Backup lead, Fab format) VH: QVQLQESGPGLVRPSQTLSLTCTVSGFDITDTYMHWVRQRPGRGLEWMGRIEPAGGHTKYNPSLKSRVTITRDTSKNQVSLRLSSVTAADTAVYYCVRSGGLPDVWGQGSLVTVSS VL: DIQMTQSPSSLSASVGDRVTITCRASQGVGYMYWYQQKPGKAPKLLIYGASNLASGVPSRFSGSGSGTDFTFTISSLQPEDIATYYCQQWEGNPRTFGQGTKVEIK	binds			
Antibody 1 (Fab format) (Fab, V domains shown, High priority lead, Fab format; also called Lead #1) VH: QVQLQESGPGLVRPSQTLSLTCTVSGFDIQDTYMHWVRQRPGRGLEWMGRIEPAGGHTKYNPSLKSRVTITRDTSKNQVSLRLSSVTAADTAVYYCASSGGMPDLWGQGSLVTVSS VL: DIQMTQSPSSLSASVGDRVTITCRASQGVEYMYWYQQKPGKAPKLLIYGASNLASGVPSRFSGSGSGTDFTFTISSLQPEDIATYYCQQWEGNPRTFGQGTKVEIK		170 pM	170 pM	170 pM
Antibody 5 (Fab format) (Fab, V domains shown, High priority lead, Fab format) VH: QVQLQESGPGLVRPSQTLSLTCTVSGFDMQDTYMHWVRQRPGRGLEWMGRIEPASGHTKYNPSLKSRVTITRDTSKNQVSLRLSSVTAADTAVYYCVRSGGLPDVWGQGSLVTVSS VL: DIQMTQSPSSLSASVGDRVTITCRASQGVMYMYWYQQKPGKAPKLLIYGASNLASGVPSRFSGSGSGTDFTFTISSLQPEDIATYYCQQWEGNPRTFGQGTKVEIK		330 pM	790 pM	330 pM
Antibody 39 (Fab format) (Fab, V domains shown, Backup lead, Fab format) VH: QVQLQESGPGLVRPSQTLSLTCTVSGFDIQDTYMHWVRQRPGRGLEWMGRIEPAGGHTKYNPSLKSRVTITRDTSKNQVSLRLSSVTAADTAVYYCVRSGGLPDAWGQGSLVTVSS VL: DIQMTQSPSSLSASVGDRVTITCRASSSVSYMYWYQQKPGKAPKLLIYATSNLASGVPSRFSGSGSGTDFTFTISSLQPEDIATYYCQQWEGNPRTFGQGTKVEIK	binds			
Antibody 3 (Fab format) (Fab, V domains shown, High priority lead, Fab format) VH: QVQLQESGPGLVRPSQTLSLTCTVSGFDIQDTYMHWVRQRPGRGLEWMGRIEPAGGHTKYNPSLKSRVTITRDTSKNQVSLRLSSVTAADTAVYYCVRSGGLPDAWGQGSLVTVSS VL: DIQMTQSPSSLSASVGDRVTITCRASQGVRYMYWYQQKPGKAPKLLIYGASNLASGVPSRFSGSGSGTDFTFTISSLQPEDIATYYCQQWEGNPRTFGQGTKVEIK		310 pM	620 pM	310 pM
Antibody 27 (Fab format) (Fab, V domains shown, Backup lead, Fab format) VH: QVQLQESGPGLVRPSQTLSLTCTVSGFDIQDTYMHWVRQRPGRGLEWMGRIEPAGGHTKYNPSLKSRVTITRDTSKNQVSLRLSSVTAADTAVYYCVRSGGLPDAWGQGSLVTVSS VL: DIQMTQSPSSLSASVGDRVTITCRASQGVRYMYWYQQKPGKAPKLLIYATSNLASGVPSRFSGSGSGTDFTFTISSLQPEDIATYYCQQWEGNPRTFGQGTKVEIK	binds			
Antibody 33 (Fab format) (Fab, V domains shown, Backup lead, Fab format) VH: QVQLQESGPGLVRPSQTLSLTCTVSGFDIQDTYMHWVRQRPGRGLEWMGRIEPAGGHTKYNPSLKSRVTITRDTSKNQVSLRLSSVTAADTAVYYCVRSGGLPDAWGQGSLVTVSS VL: DIQMTQSPSSLSASVGDRVTITCRASQGVEYMYWYQQKPGKAPKLLIYATSNLASGVPSRFSGSGSGTDFTFTISSLQPEDIATYYCQQWEGNPRTFGQGTKVEIK	binds			
Antibody 6 (Fab format) (Fab, V domains shown, High priority lead, Fab format) VH: QVQLQESGPGLVRPSQTLSLTCTVSGFDMADTYMHWVRQRPGRGLEWMGRIEPAGGHTKYNPSLKSRVTITRDTSKNQVSLRLSSVTAADTAVYYCVRSGGLPDMWGQGSLVTVSS VL: DIQMTQSPSSLSASVGDRVTITCRASQGVEYMYWYQQKPGKAPKLLIYSASNLASGVPSRFSGSGSGTDFTFTISSLQPEDIATYYCQQWEGNPRTFGQGTKVEIK		410 pM	260 pM	410 pM
Antibody 45 (Fab format) (Fab, V domains shown, Backup lead, Fab format) VH: QVQLQESGPGLVRPSQTLSLTCTVSGFDIEDTYMHWVRQRPGRGLEWMGRIEPASGHTKYNPSLKSRVTITRDTSKNQVSLRLSSVTAADTAVYYCAISGGVPDVWGQGSLVTVSS VL: DIQMTQSPSSLSASVGDRVTITCRASSSVSYMYWYQQKPGKAPKLLIYATSNLASGVPSRFSGSGSGTDFTFTISSLQPEDIATYYCQQWEGNPRTFGQGTKVEIK	binds			
Antibody 2 (Fab format) (Fab, V domains shown, High priority lead, Fab format) VH: QVQLQESGPGLVRPSQTLSLTCTVSGLDPDDTYMHWVRQRPGRGLEWMGRIEPAGGHTKYNPSLKSRVTITRDTSKNQVSLRLSSVTAADTAVYYCVISGGLPDVWGQGSLVTVSS VL: DIQMTQSPSSLSASVGDRVTITCRASSSVSYMYWYQQKPGKAPKLLIYATSNLASGVPSRFSGSGSGTDFTFTISSLQPEDIATYYCQQWEGNPRTFGQGTKVEIK		200 pM	940 pM	200 pM
Antibody 34 (Fab format) (Fab, V domains shown, Backup lead, Fab format) VH: QVQLQESGPGLVRPSQTLSLTCTVSGLDPDDTYMHWVRQRPGRGLEWMGRIEPAGGHTKYNPSLKSRVTITRDTSKNQVSLRLSSVTAADTAVYYCVISGGLPDVWGQGSLVTVSS VL: DIQMTQSPSSLSASVGDRVTITCRASQGIYYMYWYQQKPGKAPKLLIYATSNLASGVPSRFSGSGSGTDFTFTISSLQPEDIATYYCQQWEGNPRTFGQGTKVEIK	binds			
Antibody 8 (Fab format) (Fab, V domains shown, High priority lead, Fab format) VH: QVQLQESGPGLVRPSQTLSLTCTVSGFDMQSTYMHWVRQRPGRGLEWMGRIEPAGGHTKYNPSLKSRVTITRDTSKNQVSLRLSSVTAADTAVYYCVRSGGLPDVWGQGSLVTVSS VL: DIQMTQSPSSLSASVGDRVTITCRASSSVSYMYWYQQKPGKAPKLLIYGASNLASGVPSRFSGSGSGTDFTFTISSLQPEDIATYYCQQWEGNPRTFGQGTKVEIK		380 pM	3260 pM	380 pM
Antibody 7 (Fab format) (Fab, V domains shown, High priority lead, Fab format) VH: QVQLQESGPGLVRPSQTLSLTCTVSGFDMGDTYMHWVRQRPGRGLEWMGRIEPAAGHTKYNPSLKSRVTITRDTSKNQVSLRLSSVTAADTAVYYCVRSGGLPDIWGQGSLVTVSS VL: DIQMTQSPSSLSASVGDRVTITCRASQGVEYMYWYQQKPGKAPKLLIYGASNLASGVPSRFSGSGSGTDFTFTISSLQPEDIATYYCQQWEGNPRTFGQGTKVEIK		430 pM	1630 pM	430 pM
Antibody 41 (Fab format) (Fab, V domains shown, Backup lead, Fab format) VH: QVQLQESGPGLVRPSQTLSLTCTVSGFDITDTYMHWVRQRPGRGLEWMGRIEPAGGHTKYNPSLKSRVTITRDTSKNQVSLRLSSVTAADTAVYYCVRSGGLPDVWGQGSLVTVSS VL: DIQMTQSPSSLSASVGDRVTITCRASSSVSYMYWYQQKPGKAPKLLIYSASNLASGVPSRFSGSGSGTDFTFTISSLQPEDIATYYCQQWEGNPRTFGQGTKVEIK	binds			
Antibody 4 (Fab format) (Fab, V domains shown, High priority lead, Fab format) VH: QVQLQESGPGLVRPSQTLSLTCTVSGFDMADTYMHWVRQRPGRGLEWMGRIEPAGGHTKYNPSLKSRVTITRDTSKNQVSLRLSSVTAADTAVYYCVRSGGLPDMWGQGSLVTVSS VL: DIQMTQSPSSLSASVGDRVTITCRASSSVSYMYWYQQKPGKAPKLLIYGASNLASGVPSRFSGSGSGTDFTFTISSLQPEDIATYYCQQWEGNPRTFGQGTKVEIK		330 pM	160 pM	330 pM
Antibody 30 (Fab format) (Fab, V domains shown, Backup lead, Fab format) VH: QVQLQESGPGLVRPSQTLSLTCTVSGFDIQDTYMHWVRQRPGRGLEWMGRIEPAGGHTKYNPSLKSRVTITRDTSKNQVSLRLSSVTAADTAVYYCVRSGGLPDAWGQGSLVTVSS VL: DIQMTQSPSSLSASVGDRVTITCRASSSVSYMYWYQQKPGKAPKLLIYSASNLASGVPSRFSGSGSGTDFTFTISSLQPEDIATYYCQQWEGNPRTFGQGTKVEIK	binds			
Antibody 24 (Fab format) (Fab, V domains shown, Backup lead, Fab format) VH: QVQLQESGPGLVRPSQTLSLTCTVSGFDIQDTYMHWVRQRPGRGLEWMGRIEPAGGHTKYNPSLKSRVTITRDTSKNQVSLRLSSVTAADTAVYYCVRSGGLPDAWGQGSLVTVSS VL: DIQMTQSPSSLSASVGDRVTITCRASQGVGYMYWYQQKPGKAPKLLIYATSNLASGVPSRFSGSGSGTDFTFTISSLQPEDIATYYCQQWEGNPRTFGQGTKVEIK	binds			
